Results from article PMC8197658.

T1: SALL4 ZFC4 (UniProt Q9UJQ4 864-929)
T1 sequence: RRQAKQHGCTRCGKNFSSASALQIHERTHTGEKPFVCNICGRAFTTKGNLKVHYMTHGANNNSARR

B1: KDM3A EMSA WT oligo (dsDNA)
DNA 1: TCTTCATTTATCCTTCAAAA
DNA 2: TTTTGAAGGATAAATGAAGA
B2: ITC Mutant oligo 2 (dsDNA)
DNA 1: GATAAACGCTTG
DNA 2: CAAGCGTTTATC
B3: ITC Mutant oligo 1 (dsDNA)
DNA 1: GAGTCGCTAATG
DNA 2: CATTAGCGACTC
B4: KDM3A EMSA Mutant oligo (dsDNA)
DNA 1: TCTTCTTTTAACCTTCAAAA
DNA 2: TTTTGAAGGTTAAAAGAAGA

Columns and labels:
SALL4A (full-length) = SALL4A (full-length) (Homo sapiens, UniProt Q9UJQ4 1-1053); assay: EMSA
SALL4 ZFC4 = molecular target: T1, SALL4 ZFC4; assay: ITC

Chain of SALL4A (full-length) (Q9UJQ4 whole entry): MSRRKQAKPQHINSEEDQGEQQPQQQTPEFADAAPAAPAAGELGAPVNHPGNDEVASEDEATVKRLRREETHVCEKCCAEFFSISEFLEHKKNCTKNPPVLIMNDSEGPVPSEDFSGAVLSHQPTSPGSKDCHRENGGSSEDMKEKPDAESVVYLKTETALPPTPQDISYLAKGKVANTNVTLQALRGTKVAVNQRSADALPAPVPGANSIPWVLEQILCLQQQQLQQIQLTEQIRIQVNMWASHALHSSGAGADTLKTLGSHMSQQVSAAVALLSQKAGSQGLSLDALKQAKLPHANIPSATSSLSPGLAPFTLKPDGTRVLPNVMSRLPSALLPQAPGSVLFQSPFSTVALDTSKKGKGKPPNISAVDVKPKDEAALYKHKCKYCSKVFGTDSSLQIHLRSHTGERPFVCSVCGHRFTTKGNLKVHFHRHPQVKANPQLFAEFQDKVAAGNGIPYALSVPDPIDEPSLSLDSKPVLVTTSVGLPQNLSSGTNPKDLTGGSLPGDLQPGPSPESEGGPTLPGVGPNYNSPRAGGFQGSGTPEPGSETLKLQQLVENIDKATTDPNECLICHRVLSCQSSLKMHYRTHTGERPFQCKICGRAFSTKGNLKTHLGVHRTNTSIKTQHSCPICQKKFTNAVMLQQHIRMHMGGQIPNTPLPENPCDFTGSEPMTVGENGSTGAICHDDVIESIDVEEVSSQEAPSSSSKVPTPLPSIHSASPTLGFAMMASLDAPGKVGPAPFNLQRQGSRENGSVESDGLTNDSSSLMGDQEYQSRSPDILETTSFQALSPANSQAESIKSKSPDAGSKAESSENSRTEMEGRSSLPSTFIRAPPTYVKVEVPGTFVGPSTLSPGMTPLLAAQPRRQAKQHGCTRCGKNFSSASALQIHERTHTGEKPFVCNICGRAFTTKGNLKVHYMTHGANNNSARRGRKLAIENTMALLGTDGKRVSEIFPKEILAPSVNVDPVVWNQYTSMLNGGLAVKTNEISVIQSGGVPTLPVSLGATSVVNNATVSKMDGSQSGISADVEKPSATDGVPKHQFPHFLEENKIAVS

Row | Binder | binding result (SALL4A (full-length)) | binding result (SALL4 ZFC4)
1 | B1 | binds | 
2 | B2 |  | no binding
3 | B3 |  | no binding
4 | B4 | no binding | 
